Reference: publication PMC11870023, “A facile assay for zDHHC palmitoyl transferase activation elucidates effects of mutation and modification” (Journal of Lipid Research, 2025)

Test system: T1, CC(C)(COP(=O)(O)OP(=O)(O)OC[C@H]1O[C@@H](n2cnc3c(N)ncnc32)[C@H](O)[C@@H]1OP(=O)(O)O)[C@@H](O)C(=O)NCCC(=O)NCCSC(=O)CCCCCCCCCCCCCCCNc1ccc([N+](=O)[O-])c2nonc12
T1 construct: full length, HA tag kept (pEF-Bos-HA), HEK293 membrane fraction
Experiment: auto-S-palmitoylation of HEK293 membranes, SDS-PAGE fluorescence normalised to tag Western blot
Format: cell-based, Mus musculus
Conditions: pH 7.4, 37 °C, labelled compound, covalent thioester at active-site Cys

mouse zDHHC17 (Mus musculus), sequence (chain, as listed by the source): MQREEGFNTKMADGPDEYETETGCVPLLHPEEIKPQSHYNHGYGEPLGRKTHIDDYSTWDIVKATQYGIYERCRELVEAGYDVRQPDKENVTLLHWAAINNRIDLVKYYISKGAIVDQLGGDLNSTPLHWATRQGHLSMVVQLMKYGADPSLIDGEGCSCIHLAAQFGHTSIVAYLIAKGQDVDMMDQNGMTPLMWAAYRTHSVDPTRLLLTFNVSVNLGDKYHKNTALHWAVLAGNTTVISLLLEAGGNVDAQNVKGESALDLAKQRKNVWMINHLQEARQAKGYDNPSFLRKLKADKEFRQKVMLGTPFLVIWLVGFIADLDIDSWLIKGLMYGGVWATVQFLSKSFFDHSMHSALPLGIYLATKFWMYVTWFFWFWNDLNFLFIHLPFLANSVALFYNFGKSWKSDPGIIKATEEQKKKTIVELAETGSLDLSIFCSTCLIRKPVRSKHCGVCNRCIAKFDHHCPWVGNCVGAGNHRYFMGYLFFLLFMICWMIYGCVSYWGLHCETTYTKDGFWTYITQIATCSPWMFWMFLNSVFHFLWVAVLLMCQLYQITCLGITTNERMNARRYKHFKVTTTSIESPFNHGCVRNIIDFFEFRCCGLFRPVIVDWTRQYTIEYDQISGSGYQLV

mouse zDHHC17 (Mus musculus)
Km: 6.20 ± 1.20 µM
